Results published in paper PMC9512828.

B1: PTH1R-WT coupled to a C-terminal HaloTag (parathyroid hormone 1 receptor) [not stated] / β-arrestin2-dFLR (finger-loop region Y64 to K78 deleted) C-terminally fused to Nanoluciferase [not stated] (parent)
chain 1: MGEKPGTRVFKKSSPNCKLTVYLGKRDFVDHLDKVDPVDGVVLVDPDYLKDRKVFVTLTCAFRDLFIANYQAFPPTPNPPRPPTRLQERLLRKLGQHAHPFFFTIPQNLPCSVTLQPGPEDTGKACGVDFEIRAFCAKSLEEKSHKRNSVRLVIRKVQFAPEKPGPQPSAETTRHFLMSDRSLHLEASLDKELYYHGEPLNVNVHVTNNSTKTVKKIKVSVRQYADICLFSTAQYKCPVAQVEQDDQVSPSSTFCKVYTITPLLSNNREKRGLALDGKLKHEDTNLASSTIVKEGANKEVLGILVSYRVKVKLVVSRGGDVSVELPFVLMHPKPHDHIALPRPQSAATHPPTLLPSAVPETDAPVDTNLIEFETNYATDDDIVFEDFARLRLKGLKDEDYDDQFC
chain 2: DADDVMTKEEQIFLLHRAQAQCEKRLKEVLQRPASIMESDKGWTSASTSGKPRKDKASGKLYPESEEDKEAPTGSRYRGRPCLPEWDHILCWPLGAPGEVVAVPCPDYIYDFNHKGHAYRRCDRNGSWELVPGHNRTWANYSECVKFLTNETREREVFDRLGMIYTVGYSVSLASLTVAVLILAYFRRLHCTRNYIHMHLFLSFMLRAVSIFVKDAVLYSGATLDEAERLTEEELRAIAQAPPPPATAAAGYAGCRVAVTFFLYFLATNYYWILVEGLYLHSLIFMAFFSEKKYLWGFTVFGWGLPAVFVAVWVSVRATLANTGCWDLSSGNKKWIIQVPILASIVLNFILFINIVRVLATKLRETNAGRCDTRQQYRKLLKSTLVLMPLFGVHYIVFMATPYTEVSGTLWQVQMHYEMLFNSFQGFFVAIIYCFCNGEVQAEIKKSWSRWTLALDFKRKARSGSSSYSYGPMVSHTSVTNVGPRVGLGLPLSPRLLPTATTNGHPQLPGHAKPGTPALETLETTPPAMAAPKDDGFLNGSCSGLDEEASGPERPPALLQEEWETVM
B2: PTH1R-WT coupled to a C-terminal HaloTag (parathyroid hormone 1 receptor) [not stated] / β-arrestin2 WT C-terminally fused to Nanoluciferase [not stated] (parent)
chain 1: MGEKPGTRVFKKSSPNCKLTVYLGKRDFVDHLDKVDPVDGVVLVDPDYLKDRKVFVTLTCAFRYGREDLDVLGLSFRKDLFIANYQAFPPTPNPPRPPTRLQERLLRKLGQHAHPFFFTIPQNLPCSVTLQPGPEDTGKACGVDFEIRAFCAKSLEEKSHKRNSVRLVIRKVQFAPEKPGPQPSAETTRHFLMSDRSLHLEASLDKELYYHGEPLNVNVHVTNNSTKTVKKIKVSVRQYADICLFSTAQYKCPVAQVEQDDQVSPSSTFCKVYTITPLLSNNREKRGLALDGKLKHEDTNLASSTIVKEGANKEVLGILVSYRVKVKLVVSRGGDVSVELPFVLMHPKPHDHIALPRPQSAATHPPTLLPSAVPETDAPVDTNLIEFETNYATDDDIVFEDFARLRLKGLKDEDYDDQFC
chain 2: B1 chain 2
B3: PTH1R-WT coupled to a C-terminal HaloTag (parathyroid hormone 1 receptor) [not stated] / β-arrestin1-dFLR (finger-loop region Y63 to K77 deleted) C-terminally fused to Nanoluciferase [not stated] (parent)
chain 1: MGDKGTRVFKKASPNGKLTVYLGKRDFVDHIDLVDPVDGVVLVDPEYLKERRVYVTLTCAFRDLFVANVQSFPPAPEDKKPLTRLQERLIKKLGEHAYPFTFEIPPNLPCSVTLQPGPEDTGKACGVDYEVKAFCAENLEEKIHKRNSVRLVIRKVQYAPERPGPQPTAETTRQFLMSDKPLHLEASLDKEIYYHGEPISVNVHVTNNTNKTVKKIKISVRQYADICLFNTAQYKCPVAMEEADDTVAPSSTFCKVYTLTPFLANNREKRGLALDGKLKHEDTNLASSTLLREGANREILGIIVSYKVKVKLVVSRGGLLGDLASSDVAVELPFTLMHPKPKEEPPHREVPENETPVDTNLIELDTNDDDIVFEDFARQRLKGMKDDKEEEEDGTGSPQLNNR
chain 2: B1 chain 2
B4: PTH1R-WT coupled to a C-terminal HaloTag (parathyroid hormone 1 receptor) [not stated] / β-arrestin1 WT C-terminally fused to Nanoluciferase [not stated] (parent)
chain 1: MGDKGTRVFKKASPNGKLTVYLGKRDFVDHIDLVDPVDGVVLVDPEYLKERRVYVTLTCAFRYGREDLDVLGLTFRKDLFVANVQSFPPAPEDKKPLTRLQERLIKKLGEHAYPFTFEIPPNLPCSVTLQPGPEDTGKACGVDYEVKAFCAENLEEKIHKRNSVRLVIRKVQYAPERPGPQPTAETTRQFLMSDKPLHLEASLDKEIYYHGEPISVNVHVTNNTNKTVKKIKISVRQYADICLFNTAQYKCPVAMEEADDTVAPSSTFCKVYTLTPFLANNREKRGLALDGKLKHEDTNLASSTLLREGANREILGIIVSYKVKVKLVVSRGGLLGDLASSDVAVELPFTLMHPKPKEEPPHREVPENETPVDTNLIELDTNDDDIVFEDFARQRLKGMKDDKEEEEDGTGSPQLNNR
chain 2: B1 chain 2

Variants of: B1
Test: NanoBRET recruitment assay in living cells
Conditions: with β-arrestin2-dFLR (finger-loop region Y64 to K78 deleted) C-terminally fused to Nanoluciferase; HEK-WT + EV; point at the highest PTH(1-34) concentration (about 3 µM); partner is β-arrestin2-dFLR; parent: 1.4; read off a plot

response [fold change] | Variant
1.4 | chain 2 S463A S465A S466A S467A S469A
0.95 | chain 2 S475A T477A S478A T480A

Same assay, conditions: with β-arrestin2-dFLR (finger-loop region Y64 to K78 deleted) C-terminally fused to Nanoluciferase; ΔQ-GRK + EV; point at the highest PTH(1-34) concentration (about 3 µM); partner is β-arrestin2-dFLR; parent: 1; read off a plot

response [fold change] | Variant
1 | chain 2 S463A S465A S466A S467A S469A
0.95 | chain 2 S475A T477A S478A T480A

Same assay, conditions: with β-arrestin2-dFLR (finger-loop region Y64 to K78 deleted) C-terminally fused to Nanoluciferase; ΔQ-GRK + GRK2; point at the highest PTH(1-34) concentration (about 3 µM); partner is β-arrestin2-dFLR; parent: 1.3; read off a plot

response [fold change] | Variant
1.3 | chain 2 S463A S465A S466A S467A S469A
0.95 | chain 2 S475A T477A S478A T480A

Variants of: B2
Test: NanoBRET recruitment assay in living cells
Conditions: with β-arrestin2 WT C-terminally fused to Nanoluciferase; HEK-WT + EV; point at the highest PTH(1-34) concentration (about 3 µM); parent: 7.5; read off a plot

response [fold change] | Variant
6 | chain 2 S463A S465A S466A S467A S469A
3.4 | chain 2 S475A T477A S478A T480A

Same assay, conditions: with β-arrestin2 WT C-terminally fused to Nanoluciferase; HEK-WT cells; point at the highest PTH(1-34) concentration (about 3 µM); parent: 7.3; read off a plot

response [fold change] | Variant
6 | chain 2 S463A S465A S466A S467A S469A
3.4 | chain 2 S475A T477A S478A T480A

Same assay, conditions: with β-arrestin2 WT C-terminally fused to Nanoluciferase; ΔQ-GRK + EV; point at the highest PTH(1-34) concentration (about 3 µM); parent: 1.7; read off a plot

response [fold change] | Variant
1.8 | chain 2 S463A S465A S466A S467A S469A
1.9 | chain 2 S475A T477A S478A T480A

Same assay, conditions: with β-arrestin2 WT C-terminally fused to Nanoluciferase; ΔQ-GRK + GRK2; point at the highest PTH(1-34) concentration (about 3 µM); parent: 5; read off a plot

response [fold change] | Variant
4.8 | chain 2 S463A S465A S466A S467A S469A
3.2 | chain 2 S475A T477A S478A T480A

Variants of: B3
Test: NanoBRET recruitment assay in living cells
Conditions: with β-arrestin1-dFLR (finger-loop region Y63 to K77 deleted) C-terminally fused to Nanoluciferase; HEK-WT + EV; point at the highest PTH(1-34) concentration (about 3 µM); partner is β-arrestin1-dFLR; parent: 2.8; read off a plot

response [fold change] | Variant
1.1 | chain 2 S475A T477A S478A T480A
2.6 | chain 2 S463A S465A S466A S467A S469A

Same assay, conditions: with β-arrestin1-dFLR (finger-loop region Y63 to K77 deleted) C-terminally fused to Nanoluciferase; ΔQ-GRK + EV; point at the highest PTH(1-34) concentration (about 3 µM); partner is β-arrestin1-dFLR; parent: 1; read off a plot

response [fold change] | Variant
1 | chain 2 S475A T477A S478A T480A
1 | chain 2 S463A S465A S466A S467A S469A

Same assay, conditions: with β-arrestin1-dFLR (finger-loop region Y63 to K77 deleted) C-terminally fused to Nanoluciferase; ΔQ-GRK + GRK2; point at the highest PTH(1-34) concentration (about 3 µM); partner is β-arrestin1-dFLR; parent: 2.3; read off a plot

response [fold change] | Variant
1.1 | chain 2 S475A T477A S478A T480A
2.1 | chain 2 S463A S465A S466A S467A S469A

Variants of: B4
Test: NanoBRET recruitment assay in living cells
Conditions: with β-arrestin1 WT C-terminally fused to Nanoluciferase; HEK-WT + EV; point at the highest PTH(1-34) concentration (about 3 µM); parent: 5.9; read off a plot

response [fold change] | Variant
2.9 | chain 2 S475A T477A S478A T480A
5.8 | chain 2 S463A S465A S466A S467A S469A

Same assay, conditions: with β-arrestin1 WT C-terminally fused to Nanoluciferase; HEK-WT cells; point at the highest PTH(1-34) concentration (about 3 µM); parent: 5.9; read off a plot

response [fold change] | Variant
2.9 | chain 2 S475A T477A S478A T480A
5.9 | chain 2 S463A S465A S466A S467A S469A

Same assay, conditions: with β-arrestin1 WT C-terminally fused to Nanoluciferase; ΔQ-GRK + EV; point at the highest PTH(1-34) concentration (about 3 µM); parent: 1.4; read off a plot

response [fold change] | Variant
2 | chain 2 S475A T477A S478A T480A
1.7 | chain 2 S463A S465A S466A S467A S469A

Same assay, conditions: with β-arrestin1 WT C-terminally fused to Nanoluciferase; ΔQ-GRK + GRK2; point at the highest PTH(1-34) concentration (about 3 µM); parent: 5.3; read off a plot

response [fold change] | Variant
2.7 | chain 2 S475A T477A S478A T480A
6.3 | chain 2 S463A S465A S466A S467A S469A
